Results published in US7193044.

Tests used:
[1] = test system: GST-BAD S112A/S136A/S155A
[2] = test system: GST-BAD S112A [GST: P08515]
[3] = test system: T1, Full-length BAD (wildtype), in vitro translated, 35S-methionine labelled, buffer control
T1 sequence: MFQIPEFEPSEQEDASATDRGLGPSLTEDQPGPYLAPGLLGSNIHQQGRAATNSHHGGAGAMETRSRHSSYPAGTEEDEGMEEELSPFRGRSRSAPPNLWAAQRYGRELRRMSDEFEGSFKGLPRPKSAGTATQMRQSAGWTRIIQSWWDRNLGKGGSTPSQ

[4] = test system: T2, GST-BAD (GST-tagged shorter murine BAD)
T2 sequence: T1 sequence

## PKA (cAMP-dependent protein kinase), catalytic subunit from bovine heart
[1]
  in vitro phosphorylation (32P incorporation, autoradiography): abolished phosphorylation of the triple mutant GST-BAD S112A/S135A/S155A
[2]
  in vitro phosphorylation (32P incorporation, autoradiography): the shorter murine BAD, and BAD mutants containing mutations at the serine at a position corresponding to Ser112 and/or Ser136, were good in vitro substrates for PKA
[3]
  gel-mobility shift after incubation with PKA and ATP: phosphorylation by PKA induced a gel-mobility shift of wild-type BAD
GST-BAD S155A
  in vitro phosphorylation (32P incorporation, autoradiography): dramatically reduced the phosphorylation of the single mutant GST-BAD S155A
GST-BAD S136A
  in vitro phosphorylation (32P incorporation, autoradiography): the shorter murine BAD, and BAD mutants containing mutations at the serine at a position corresponding to Ser112 and/or Ser136, were good in vitro substrates for PKA
[4]
  in vitro phosphorylation (32P incorporation, autoradiography): the shorter murine BAD, and BAD mutants containing mutations at the serine at a position corresponding to Ser112 and/or Ser136, were good in vitro substrates for PKA
GST-BAD S112A/S136A
  in vitro phosphorylation (32P incorporation, autoradiography): the shorter murine BAD, and BAD mutants containing mutations at the serine at a position corresponding to Ser112 and/or Ser136, were good in vitro substrates for PKA
